Laboratory results from PMC6150519.
One block for each substance: values may come before it.

Tests used:
GIRK1/2-CFP [1] = target: GIRK1/2-CFP
GIRK1/2-CFP [2] = target: GIRK1/2-CFP; remark: listed apart in the source
GIRK1/2-CFP [3] = assay: FRET or BRET; acceptor bleaching under TIRF illumination in living HEK293T cells co-transfected with receptor-YFP (or prestin-YFP) and GIRK1/2-CFP; G protein subunits not additionally transfected; absence or presence of oxo-M (10 uM)

agonist-induced GIRK channel current density (ΔImax), oxo-M 10 uM, tandem constructs M1R-YFP-34/100/265-GIRK1/2, PTX (-); decreased with the increase in the linker length (GIRK1/2-CFP [1]): 11.3 pA/pF
Substance: M1R-YFP (from UniProt P04761 1-460) (receptor)

agonist-induced GIRK channel current density (ΔImax), oxo-M 10 uM, tandem constructs M2R-YFP-100/265/535-GIRK1/2, PTX (-); not changed with the increases in the linker length (GIRK1/2-CFP [2]): 62 pA/pF
Substance: M2R-YFP (from UniProt P06199 1-466) (receptor)

FRET efficiency (GIRK1/2-CFP [3]): 5.5%
Substance: receptor-YFP with the long chain in the middle of M2R-i3 (K221-P379) replaced with SGGGS
